Laboratory results taken from PMC6351565 (2019).
Where no end group is shown, it is not given here. [ ]: non-standard residue; d: D form. pT = C[C@@H](OP(=O)(O)O)[C@H](N)C(=O)O; pS = N[C@@H](COP(=O)(O)O)C(=O)O

T1: 14-3-3θ (human, UniProt P27348 1-245)
T1 chain: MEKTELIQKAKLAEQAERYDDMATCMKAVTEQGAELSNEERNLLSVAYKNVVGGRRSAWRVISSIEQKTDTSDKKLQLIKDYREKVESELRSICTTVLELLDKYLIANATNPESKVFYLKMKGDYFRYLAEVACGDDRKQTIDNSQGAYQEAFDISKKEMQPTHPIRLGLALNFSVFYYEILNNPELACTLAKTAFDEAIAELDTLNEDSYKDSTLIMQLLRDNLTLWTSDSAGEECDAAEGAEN


Molecular target: T1, 14-3-3θ
Assay: ITC

| Binder | Kd |
| --- | --- |
| Ac-ATTENK[pT]LPRSSS-NH2 (SMILES CC(=O)N[C@@H](C)C(=O)N[C@H](C(=O)N[C@H](C(=O)N[C@@H](CCC(=O)O)C(=O)N[C@@H](CC(N)=O)C(=O)N[C@@H](CCCCN)C(=O)N[C@H](C(=O)N[C@@H](CC(C)C)C(=O)N1CCC[C@H]1C(=O)N[C@@H](CCCNC(=N)N)C(=O)N[C@@H](CO)C(=O)N[C@@H](CO)C(=O)N[C@@H](CO)C(N)=O)[C@@H](C)OP(=O)(O)O)[C@@H](C)O)[C@@H](C)O) [Site 3 peptide (pT360)] | 15.5 µM |
| Ac-LSDSYSN[pT]LPVRKS-NH2 (SMILES CC(=O)N[C@@H](CC(C)C)C(=O)N[C@@H](CO)C(=O)N[C@@H](CC(=O)O)C(=O)N[C@@H](CO)C(=O)N[C@@H](Cc1ccc(O)cc1)C(=O)N[C@@H](CO)C(=O)N[C@@H](CC(N)=O)C(=O)N[C@H](C(=O)N[C@@H](CC(C)C)C(=O)N1CCC[C@H]1C(=O)N[C@H](C(=O)N[C@@H](CCCNC(=N)N)C(=O)N[C@@H](CCCCN)C(=O)N[C@@H](CO)C(N)=O)C(C)C)[C@@H](C)OP(=O)(O)O) [Site 2 peptide (pT340)] | 5.5 µM |
| AQPKSL[pS]PPQSQSKLSDSYSN[pT]LPVRKS [Sites 1,2 peptide (pS325/pT340)] | 16.2 µM |
| Ac-TLPRSS[pS]MAAGLEK-NH2 (SMILES CSCC[C@H](NC(=O)[C@H](COP(=O)(O)O)NC(=O)[C@H](CO)NC(=O)[C@H](CO)NC(=O)[C@H](CCCNC(=N)N)NC(=O)[C@@H]1CCCN1C(=O)[C@H](CC(C)C)NC(=O)[C@@H](NC(C)=O)[C@@H](C)O)C(=O)N[C@@H](C)C(=O)N[C@@H](C)C(=O)NCC(=O)N[C@@H](CC(C)C)C(=O)N[C@@H](CCC(=O)O)C(=O)N[C@@H](CCCCN)C(N)=O) [Site 4 peptide (pS366)] | 16.5 µM |
